Measurements reported in patent US20240269235A1 (Gilead, published 2024).

T1: trimeric murine IL-2 receptor (IL-2Rα, IL-2Rβ, and IL-2Rγ) on CTLL-2 cells (murine, UniProt P01590 22-268; P16297 27-539; P34902 23-369)
T1 sequence (looked up) 1: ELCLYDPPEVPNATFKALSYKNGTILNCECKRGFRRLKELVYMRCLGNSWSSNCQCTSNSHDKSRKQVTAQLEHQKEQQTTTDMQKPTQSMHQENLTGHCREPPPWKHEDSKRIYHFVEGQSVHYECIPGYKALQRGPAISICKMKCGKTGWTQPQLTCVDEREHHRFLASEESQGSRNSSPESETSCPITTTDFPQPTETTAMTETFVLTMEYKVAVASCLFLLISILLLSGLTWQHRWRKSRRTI
T1 sequence (looked up) 2: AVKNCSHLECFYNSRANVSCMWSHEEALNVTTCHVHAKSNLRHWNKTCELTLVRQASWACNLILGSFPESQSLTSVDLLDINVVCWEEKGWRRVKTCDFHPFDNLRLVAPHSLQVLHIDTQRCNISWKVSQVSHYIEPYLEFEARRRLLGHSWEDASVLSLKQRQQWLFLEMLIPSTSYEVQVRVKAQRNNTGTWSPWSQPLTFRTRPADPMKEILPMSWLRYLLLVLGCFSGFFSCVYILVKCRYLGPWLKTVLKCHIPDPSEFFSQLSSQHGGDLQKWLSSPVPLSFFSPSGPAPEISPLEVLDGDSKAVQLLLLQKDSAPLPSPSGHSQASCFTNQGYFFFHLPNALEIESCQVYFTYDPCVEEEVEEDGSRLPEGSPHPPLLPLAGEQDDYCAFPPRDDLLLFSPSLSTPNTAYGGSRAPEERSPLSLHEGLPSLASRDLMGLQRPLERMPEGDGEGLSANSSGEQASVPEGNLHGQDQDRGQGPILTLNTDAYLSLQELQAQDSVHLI
T1 sequence (looked up) 3: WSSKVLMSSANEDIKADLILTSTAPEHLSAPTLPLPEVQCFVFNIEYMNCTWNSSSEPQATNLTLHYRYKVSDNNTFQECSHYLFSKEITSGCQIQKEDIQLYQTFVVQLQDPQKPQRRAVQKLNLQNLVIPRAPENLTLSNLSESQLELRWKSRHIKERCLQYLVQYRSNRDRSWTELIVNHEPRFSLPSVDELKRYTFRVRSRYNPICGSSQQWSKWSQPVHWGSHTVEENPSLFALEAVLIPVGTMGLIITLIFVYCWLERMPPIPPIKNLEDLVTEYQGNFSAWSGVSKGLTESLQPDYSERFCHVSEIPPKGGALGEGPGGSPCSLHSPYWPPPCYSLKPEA

T2: IL-2Rα (recombinant IL-2 receptor α, R&D Systems Cat #: 223-2A/CF), biotinylated (human, UniProt P01589 22-213, limits assumed, biotinylated using sulfo-NHS-LC-LC-Biotin)
T2 construct: Bought reagent; also used here as the IL-2Rα partner of the in-silico analysis of PDB 2B5I (another construct); also called IL-2RA; CD25
T2 sequence (looked up): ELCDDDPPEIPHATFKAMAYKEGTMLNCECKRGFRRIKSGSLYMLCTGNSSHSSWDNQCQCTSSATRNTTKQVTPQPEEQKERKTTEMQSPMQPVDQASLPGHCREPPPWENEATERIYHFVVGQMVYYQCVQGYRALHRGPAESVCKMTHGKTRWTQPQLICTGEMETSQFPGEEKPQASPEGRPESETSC

T3: IL-2Rαβγ on KHYG-1 cells (human NK leukemia cell line that expresses IL-2Rα, β, and γ) (human, UniProt P01589 22-272; P14784 27-551; P31785 23-369)
T3 sequence (looked up) 1: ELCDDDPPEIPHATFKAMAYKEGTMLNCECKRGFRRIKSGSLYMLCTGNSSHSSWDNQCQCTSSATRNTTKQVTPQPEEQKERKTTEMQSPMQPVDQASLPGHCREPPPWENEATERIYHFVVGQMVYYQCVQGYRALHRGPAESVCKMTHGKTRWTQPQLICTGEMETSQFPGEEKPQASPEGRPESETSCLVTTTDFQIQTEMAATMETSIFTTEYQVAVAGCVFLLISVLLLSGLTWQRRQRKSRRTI
T3 sequence (looked up) 2: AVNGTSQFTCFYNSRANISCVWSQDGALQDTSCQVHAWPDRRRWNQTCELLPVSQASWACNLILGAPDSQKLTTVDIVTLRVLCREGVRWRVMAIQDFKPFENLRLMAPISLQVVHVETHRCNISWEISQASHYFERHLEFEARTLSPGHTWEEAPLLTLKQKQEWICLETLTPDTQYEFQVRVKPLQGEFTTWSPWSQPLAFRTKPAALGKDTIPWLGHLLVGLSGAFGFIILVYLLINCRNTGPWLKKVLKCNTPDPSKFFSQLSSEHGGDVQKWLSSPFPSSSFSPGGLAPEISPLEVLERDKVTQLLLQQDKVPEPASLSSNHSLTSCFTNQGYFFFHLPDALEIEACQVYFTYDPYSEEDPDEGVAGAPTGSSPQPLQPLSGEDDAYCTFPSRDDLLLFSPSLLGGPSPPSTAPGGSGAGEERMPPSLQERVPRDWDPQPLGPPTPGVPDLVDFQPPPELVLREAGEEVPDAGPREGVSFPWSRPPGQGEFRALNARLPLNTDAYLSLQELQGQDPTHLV
T3 sequence (looked up) 3: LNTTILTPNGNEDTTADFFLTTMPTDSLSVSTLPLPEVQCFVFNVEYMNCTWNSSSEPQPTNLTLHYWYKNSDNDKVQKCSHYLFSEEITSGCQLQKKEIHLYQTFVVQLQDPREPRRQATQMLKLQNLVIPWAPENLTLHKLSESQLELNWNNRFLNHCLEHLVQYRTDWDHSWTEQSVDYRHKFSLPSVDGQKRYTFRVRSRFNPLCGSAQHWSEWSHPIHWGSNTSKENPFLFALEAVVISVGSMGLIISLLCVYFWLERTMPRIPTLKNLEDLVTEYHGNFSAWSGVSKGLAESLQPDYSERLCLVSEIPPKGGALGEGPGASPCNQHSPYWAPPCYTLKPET


Key:
[1] = biological target: T1, trimeric murine IL-2 receptor (IL-2Rα, …); assay: cell-based or functional assay
[2] = biological target: T2, IL-2Rα (recombinant IL-2 receptor α, …); assay: SPR (Biacore), CM4 chip, biotinylated receptor on neutravidin
Description: (§1) Fc-IL-2 variant binding data was collected on a Biacore platform using a CM4 chip. Neutravidin was immobilized using standard amine coupling methods and used to capture biotinylated receptors. The source, preparation and immobilization of biotinylated IL-2Rα and IL-2Rβγ heterodimer was as described in Example 4. Proleukin was used as a comparator. Fc-IL-2 variants and Proleukin were injected at various concentrations over these surfaces. Kinetic data obtained from these injections was used to extract kₒₙ and koff to calculate KD (KD=Koff/kₒₙ).

[3] = biological target: T4, IL-2Rβγ heterodimer, custom biotinylated Fc fusion protein (human IL-2Rβ 27-240-Fc-FLAG / human IL-2Rγ … (human, site-specific biotinylation at the AviTag)); assay: as above
T4 construct: Extracellular regions fused to IgG1 knob-in-hole Fc subunits with tags; also called IL-2 receptor βγ heterodimer; Fc-IL-2Rβγ
Description: as §1

[4] = biological target: T3, IL-2Rαβγ on KHYG-1 cells (human NK …); assay: cell-based or functional assay

Row | Binder | STAT5 activation of CTLL-2 cells, EC50 [1] | Kd [2] | Kd [3] | Proliferation of KHYG-1 NK cells, EC50 [4]
1 | Fc-IL-2v heterodimer 96.46 (hIL-2v_Δ1-5_Y45G_E61A_C125S) (Fc fusion, hIgG4 knob-in-hole Fc heterodimer, one IL-2v on the knob chain) chain 1: ESKYGPPCPPCPAPEAAGGPSVFLFPPKPKDTLMISRTPEVTCVVVDVSQEDPEVQFNWYVDGVEVHNAKTKPREEQFNSTYRVVSVLTVLHQDWLNGKEYKCKVSNKGLPSSIEKTISKAKGQPREPQVYTLPPSQEEMTKNQVSLWCLVKGFYPSDIAVEWESNGQPENNYKTTPPVLDSDGSFFLYSRLTVDKSRWQEGNVFSCSVMHEALHNHYTQKSLSLSLGGGGGSGGGGSGGGGSGGGGSSTKKTQLQLEHLLLDLQMILNGINNYKNPKLTRMLTFKFGMPKKATELKHLQCLEAELKPLEEVLNLAQSKNFHLRPRDLISNINVIVLELKGSETTFMCEYADETATIVEFLNRWITFSQSIISTLT chain 2: ESKYGPPCPPCPAPEAAGGPSVFLFPPKPKDTLMISRTPEVTCVVVDVSQEDPEVQFNWYVDGVEVHNAKTKPREEQFNSTYRVVSVLTVLHQDWLNGKEYKCKVSNKGLPSSIEKTISKAKGQPREPQVYTLPPSQEEMTKNQVSLSCAVKGFYPSDIAVEWESNGQPENNYKTTPPVLDSDGSFFLVSRLTVDKSRWQEGNVFSCSVMHEALHNRFTQKSLSLSLGK | 0.4 nM | 56000 nM | 0.064 nM | 
2 | Fc-IL-2v heterodimer 99.46 (hIL-2v_Δ1-5_R38G_E61A_C125S) (Fc fusion, hIgG4 knob-in-hole Fc heterodimer, one IL-2v on the knob chain) chain 1: ESKYGPPCPPCPAPEAAGGPSVFLFPPKPKDTLMISRTPEVTCVVVDVSQEDPEVQFNWYVDGVEVHNAKTKPREEQFNSTYRVVSVLTVLHQDWLNGKEYKCKVSNKGLPSSIEKTISKAKGQPREPQVYTLPPSQEEMTKNQVSLWCLVKGFYPSDIAVEWESNGQPENNYKTTPPVLDSDGSFFLYSRLTVDKSRWQEGNVFSCSVMHEALHNHYTQKSLSLSLGGGGGSGGGGSGGGGSGGGGSSTKKTQLQLEHLLLDLQMILNGINNYKNPKLTGMLTFKFYMPKKATELKHLQCLEAELKPLEEVLNLAQSKNFHLRPRDLISNINVIVLELKGSETTFMCEYADETATIVEFLNRWITFSQSIISTLT chain 2: ESKYGPPCPPCPAPEAAGGPSVFLFPPKPKDTLMISRTPEVTCVVVDVSQEDPEVQFNWYVDGVEVHNAKTKPREEQFNSTYRVVSVLTVLHQDWLNGKEYKCKVSNKGLPSSIEKTISKAKGQPREPQVYTLPPSQEEMTKNQVSLSCAVKGFYPSDIAVEWESNGQPENNYKTTPPVLDSDGSFFLVSRLTVDKSRWQEGNVFSCSVMHEALHNRFTQKSLSLSLGK | 0.03 nM | 39000 nM | 0.065 nM | 
3 | Fc-IL-2v heterodimer 98.46 (hIL-2v_Δ1-5_R38G_Y45G_C125S) (Fc fusion, hIgG4 knob-in-hole Fc heterodimer, one IL-2v on the knob chain) chain 1: ESKYGPPCPPCPAPEAAGGPSVFLFPPKPKDTLMISRTPEVTCVVVDVSQEDPEVQFNWYVDGVEVHNAKTKPREEQFNSTYRVVSVLTVLHQDWLNGKEYKCKVSNKGLPSSIEKTISKAKGQPREPQVYTLPPSQEEMTKNQVSLWCLVKGFYPSDIAVEWESNGQPENNYKTTPPVLDSDGSFFLYSRLTVDKSRWQEGNVFSCSVMHEALHNHYTQKSLSLSLGGGGGSGGGGSGGGGSGGGGSSTKKTQLQLEHLLLDLQMILNGINNYKNPKLTGMLTFKFGMPKKATELKHLQCLEEELKPLEEVLNLAQSKNFHLRPRDLISNINVIVLELKGSETTFMCEYADETATIVEFLNRWITFSQSIISTLT chain 2: ESKYGPPCPPCPAPEAAGGPSVFLFPPKPKDTLMISRTPEVTCVVVDVSQEDPEVQFNWYVDGVEVHNAKTKPREEQFNSTYRVVSVLTVLHQDWLNGKEYKCKVSNKGLPSSIEKTISKAKGQPREPQVYTLPPSQEEMTKNQVSLSCAVKGFYPSDIAVEWESNGQPENNYKTTPPVLDSDGSFFLVSRLTVDKSRWQEGNVFSCSVMHEALHNRFTQKSLSLSLGK | 0.2 nM | 59000 nM | 0.056 nM | 

Second part, the binder after the results:

Row | STAT5 activation of CTLL-2 cells, EC50 [1] | Kd [2] | Kd [3] | Proliferation of KHYG-1 NK cells, EC50 [4] | Binder
4 | 41.4 nM |  | 0.062 nM | 0.191 nM | Fc-IL-2v heterodimer 108.46 (hIL-2v_Δ1-5_F42A_Y45G_E62A_C125S) (Fc fusion, hIgG4 knob-in-hole Fc heterodimer, one IL-2v on the knob chain) chain 1: ESKYGPPCPPCPAPEAAGGPSVFLFPPKPKDTLMISRTPEVTCVVVDVSQEDPEVQFNWYVDGVEVHNAKTKPREEQFNSTYRVVSVLTVLHQDWLNGKEYKCKVSNKGLPSSIEKTISKAKGQPREPQVYTLPPSQEEMTKNQVSLWCLVKGFYPSDIAVEWESNGQPENNYKTTPPVLDSDGSFFLYSRLTVDKSRWQEGNVFSCSVMHEALHNHYTQKSLSLSLGGGGGSGGGGSGGGGSGGGGSSTKKTQLQLEHLLLDLQMILNGINNYKNPKLTRMLTAKFGMPKKATELKHLQCLEEALKPLEEVLNLAQSKNFHLRPRDLISNINVIVLELKGSETTFMCEYADETATIVEFLNRWITFSQSIISTLT chain 2: ESKYGPPCPPCPAPEAAGGPSVFLFPPKPKDTLMISRTPEVTCVVVDVSQEDPEVQFNWYVDGVEVHNAKTKPREEQFNSTYRVVSVLTVLHQDWLNGKEYKCKVSNKGLPSSIEKTISKAKGQPREPQVYTLPPSQEEMTKNQVSLSCAVKGFYPSDIAVEWESNGQPENNYKTTPPVLDSDGSFFLVSRLTVDKSRWQEGNVFSCSVMHEALHNRFTQKSLSLSLGK
5 | 7.7 nM | > 60000 nM | 0.063 nM |  | Fc-IL-2v heterodimer 105.46 (hIL-2v_Δ1-5_F42A_Y45A_L72G_C125S) (Fc fusion, hIgG4 knob-in-hole Fc heterodimer, one IL-2v on the knob chain) chain 1: ESKYGPPCPPCPAPEAAGGPSVFLFPPKPKDTLMISRTPEVTCVVVDVSQEDPEVQFNWYVDGVEVHNAKTKPREEQFNSTYRVVSVLTVLHQDWLNGKEYKCKVSNKGLPSSIEKTISKAKGQPREPQVYTLPPSQEEMTKNQVSLWCLVKGFYPSDIAVEWESNGQPENNYKTTPPVLDSDGSFFLYSRLTVDKSRWQEGNVFSCSVMHEALHNHYTQKSLSLSLGGGGGSGGGGSGGGGSGGGGSSTKKTQLQLEHLLLDLQMILNGINNYKNPKLTRMLTAKFAMPKKATELKHLQCLEEELKPLEEVLNGAQSKNFHLRPRDLISNINVIVLELKGSETTFMCEYADETATIVEFLNRWITFSQSIISTLT chain 2: ESKYGPPCPPCPAPEAAGGPSVFLFPPKPKDTLMISRTPEVTCVVVDVSQEDPEVQFNWYVDGVEVHNAKTKPREEQFNSTYRVVSVLTVLHQDWLNGKEYKCKVSNKGLPSSIEKTISKAKGQPREPQVYTLPPSQEEMTKNQVSLSCAVKGFYPSDIAVEWESNGQPENNYKTTPPVLDSDGSFFLVSRLTVDKSRWQEGNVFSCSVMHEALHNRFTQKSLSLSLGK
